In experiment [1] the target is human protein Axl expressed on cells (SN12C human renal tumor cells; CHO-Axl cells) (human) (UniProt P30530). As to the kind of experiment: flow cytometry, labelling of untreated (No Ab) SN12C cells. For orientation: A flow cytometer gives signals particle by particle.
Experiment [2] has the same target. As to the kind of experiment: flow cytometry, labelling of SN12C cells treated 24 h with 9G4 at 10 µg/ml.
For experiment [3] the target is unchanged. Description: QIFIKIT quantitative flow cytometry on Calu-1 cells (lung).
Experiment [4] shares this target. As to the kind of experiment: QIFIKIT quantitative flow cytometry on MCF7 cells (breast).
Experiment [5] shares this target. As to the kind of experiment: QIFIKIT quantitative flow cytometry on SN12C cells (renal).
For experiment [6] the target is unchanged. As to the kind of experiment: QIFIKIT quantitative flow cytometry on PC3 cells (prostate).
For experiment [7] the target is unchanged. Description: QIFIKIT quantitative flow cytometry on NCI-H125 cells (NSCLC).
For experiment [8] the target is unchanged. As to the kind of experiment: QIFIKIT quantitative flow cytometry on NCI-H226 cells (NSCLC).
Experiment [9] shares this target. Description: QIFIKIT quantitative flow cytometry on Panc1 cells (pancreas).
Experiment [10] has the same target. Description: QIFIKIT quantitative flow cytometry on DU-145 cells (prostate).
Experiment [11] has the same target. As to the kind of experiment: QIFIKIT quantitative flow cytometry on A172 cells (glioblastoma).
The target is the same in experiment [12]. As to the kind of experiment: QIFIKIT quantitative flow cytometry on MDA-MB-231 cells (breast).
Experiment [13] shares this target. Description: QIFIKIT quantitative flow cytometry on MDA-MB-435S cells (breast).
For experiment [14] the target is unchanged. As to the kind of experiment: QIFIKIT quantitative flow cytometry on A431 cells (epidermoid carcinoma).
For experiment [15] the target is unchanged. As to the kind of experiment: Qifikit (Dako) quantitative flow cytometry on SN12C human renal cancer cells.
For experiment [16], the target named is monkey Axl receptor expressed on the surface of COS7 cells (African green monkey). Description: flow cytometry titration on COS7 cells.
Experiment [17] has the same target. As to the kind of experiment: flow cytometry on COS7 cells, goat anti-mouse Alexa 488.
The target of experiment [18] is T1, human protein Axl expressed on cells (SN12C human renal tumor cells; CHO-Axl cells) (human, UniProt P30530 26-894).
T1 construct: also called membrane Axl receptor; cell-surface Axl
T1 sequence: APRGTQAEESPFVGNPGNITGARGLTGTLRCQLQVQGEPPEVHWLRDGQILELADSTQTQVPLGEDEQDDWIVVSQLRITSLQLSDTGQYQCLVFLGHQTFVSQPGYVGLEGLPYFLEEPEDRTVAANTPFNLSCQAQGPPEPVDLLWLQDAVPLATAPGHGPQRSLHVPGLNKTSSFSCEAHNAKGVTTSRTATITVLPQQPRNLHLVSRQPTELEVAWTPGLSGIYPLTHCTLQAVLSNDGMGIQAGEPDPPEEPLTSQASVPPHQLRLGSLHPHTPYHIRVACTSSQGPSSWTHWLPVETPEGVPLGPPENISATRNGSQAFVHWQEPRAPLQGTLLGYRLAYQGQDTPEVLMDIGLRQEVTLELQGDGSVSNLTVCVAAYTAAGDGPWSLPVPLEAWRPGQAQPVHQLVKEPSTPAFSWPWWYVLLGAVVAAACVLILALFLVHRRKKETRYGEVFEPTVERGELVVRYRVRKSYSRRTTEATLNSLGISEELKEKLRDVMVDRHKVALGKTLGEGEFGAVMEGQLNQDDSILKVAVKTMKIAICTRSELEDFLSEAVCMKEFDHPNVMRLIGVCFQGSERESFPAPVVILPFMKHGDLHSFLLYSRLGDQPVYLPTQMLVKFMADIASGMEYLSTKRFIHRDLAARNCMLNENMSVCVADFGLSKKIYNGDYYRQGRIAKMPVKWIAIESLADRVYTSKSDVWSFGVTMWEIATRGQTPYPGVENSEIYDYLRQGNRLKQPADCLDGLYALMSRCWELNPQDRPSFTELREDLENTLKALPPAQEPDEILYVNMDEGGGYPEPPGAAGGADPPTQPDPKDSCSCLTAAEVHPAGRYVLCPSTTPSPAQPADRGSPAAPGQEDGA
As to the kind of experiment: flow cytometry on SN12C cells, goat anti-mouse Alexa 488.

Consider 9G4 (mIgG1 isotype control antibody), for which the values for the MFI at T24 h in [1] and in experiment [2] were 11 MFI and 13 MFI, respectively.
With “MAB154 anti-Axl commercial antibody (R and D Systems)”, the ABC (Qifikit) in experiment [3] is > 100000 ABC; in experiment [4], 71 ABC; in [5], > 100000 ABC; in [6], 8420 ABC; in experiment [7] it was 5540 ABC; in experiment [8], 32100 ABC. Besides, the ABC (Qifikit) in experiment [9] is 36800 ABC; in experiment [10], 55300 ABC; in experiment [11] it was 52400 ABC; in [12], 61200 ABC; in [13], 17800 ABC; in experiment [14] it was 3950 ABC. The molecule also gave an MFI at T24 h in experiment [1] of 950 MFI. For the same molecule, the Antigen binding capacity (Qifikit) in experiment [15] is > 100000 ABC.

B1: 1613F12 (antibody, V domains shown)
VH: EVHLQQSGAELVKPGASVKLSCTASGFNIRDTYIHWVKQRPEQGLEWIGRLDPANGHTKYGPNFQGRATMTSDTSSNTAYLQLSSLTSEDTAVYYCARGAYYYGSSGLFYFDYWGQGTTLSVSS
VL: DVQITQSPSYLATSPGETITINCRASKSISKYLAWYQEKPGKTNKLLIYSGSTLQSGVPSRFSGSGSGTDFTLTISSLEPEDFAMYFCQQHHEYPLTFGAGTELELK
notes: also called 1613F12 antibody; 1613F12 Mab
Broadly, the EC50 (read off the curve) is the concentration needed to bring the measured effect to its halfway point. Regarding B1, in [16], the concentration above which the plateau is reached was > 420 pM. Further, the 50% effective concentration (EC50 (read off the curve)) in experiment [17] is 1000 pM; in [18], ~900 pM.

The values above are taken from US20140141023A1 (PIERRE FABRE MEDICAMENT, published 2014).
